This is an account of results in article PMC7057681 (ACS Omega, 2020).

The data set “SEC-SAXS” deals with the molecule itself. Briefly: SEC-SAXS. (In general: In gel filtration, larger molecules generally elute earlier.)
Data set [1] concerns the molecule itself. Briefly: SEC.
Data set [2] deals with the molecule itself. Briefly: SEC. This is another data set of the same source.

B1: S100A3 R51Q mutant (natural protein, human)
chain: MARPLEQAVAAIVCTFQEYAGRCGDKYKLCQAELKELLQKELATWTPTEFQECDYNKFMSVLDTNKDCEVDFVEYVRSLACLCLYCHEYFKDCPSEPPCSQ
On to B1, for which the “stoichiometry N” value in “SEC-SAXS” was 2; in “SEC [1]”, 4.

B2: S100A3 R51E mutant (natural protein, human)
chain: MARPLEQAVAAIVCTFQEYAGRCGDKYKLCQAELKELLQKELATWTPTEFEECDYNKFMSVLDTNKDCEVDFVEYVRSLACLCLYCHEYFKDCPSEPPCSQ
As to B2, the “stoichiometry N” value in “SEC [2]” was found to be 4.

B3: citrullinated S100A3 (R51Z), WT S100A3 citrullinated in vitro by PAD3 (natural protein, human)
chain: MARPLEQAVAAIVCTFQEYAGRCGDKYKLCQAELKELLQKELATWTPTEFRECDYNKFMSVLDTNKDCEVDFVEYVRSLACLCLYCHEYFKDCPSEPPCSQ
modifications: citrulline at R51 (by PAD3 in vitro)
Regarding B3, the “stoichiometry N” value in “SEC [1]” was found to be 4.

As a reminder, the stoichiometry N is a count of units in the complex or per binding partner.
